The target of experiment [1] is GII.4 Sydney 2012 virus-like particles (VLPs), based on strain AFV08795.1 (human norovirus GII.4 Sydney 2012, UniProt P54635 1-538). Briefly: indirect ELISA on coated GII.4 Sydney 2012 VLPs.
The target of experiment [2] is T1, GII.4 Houston 2002 (ABY27560.1) VLPs (human norovirus GII.4 Houston 2002, UniProt P54635 1-539).
T1 construct: also called GII.4 Houston 2002 antigen; GII.4 Houston VLPs
T1 chain: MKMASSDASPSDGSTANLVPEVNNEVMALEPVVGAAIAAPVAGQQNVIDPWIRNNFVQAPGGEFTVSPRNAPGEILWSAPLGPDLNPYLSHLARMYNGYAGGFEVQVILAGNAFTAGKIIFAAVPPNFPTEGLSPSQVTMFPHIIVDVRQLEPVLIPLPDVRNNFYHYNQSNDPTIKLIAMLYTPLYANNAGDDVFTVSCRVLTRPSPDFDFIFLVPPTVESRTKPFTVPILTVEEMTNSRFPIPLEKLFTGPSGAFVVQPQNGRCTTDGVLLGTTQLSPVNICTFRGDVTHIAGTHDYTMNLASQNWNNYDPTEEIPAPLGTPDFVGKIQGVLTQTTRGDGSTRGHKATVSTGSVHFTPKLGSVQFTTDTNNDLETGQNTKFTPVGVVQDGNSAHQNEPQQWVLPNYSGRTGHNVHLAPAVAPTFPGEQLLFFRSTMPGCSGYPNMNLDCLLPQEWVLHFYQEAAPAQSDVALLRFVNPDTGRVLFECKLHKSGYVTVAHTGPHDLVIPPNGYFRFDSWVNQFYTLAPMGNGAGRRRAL
As to the kind of experiment: ELISA on GII.4 Houston 2002 VLPs.

Experiment [3] deals with T2, GII.4 Sydney 2012 virus-like particles (VLPs), based on strain AFV08795.1 (human norovirus GII.4 Sydney 2012, UniProt P54635 1-538).
T2 construct: also called GII.4 VLPs
T2 chain: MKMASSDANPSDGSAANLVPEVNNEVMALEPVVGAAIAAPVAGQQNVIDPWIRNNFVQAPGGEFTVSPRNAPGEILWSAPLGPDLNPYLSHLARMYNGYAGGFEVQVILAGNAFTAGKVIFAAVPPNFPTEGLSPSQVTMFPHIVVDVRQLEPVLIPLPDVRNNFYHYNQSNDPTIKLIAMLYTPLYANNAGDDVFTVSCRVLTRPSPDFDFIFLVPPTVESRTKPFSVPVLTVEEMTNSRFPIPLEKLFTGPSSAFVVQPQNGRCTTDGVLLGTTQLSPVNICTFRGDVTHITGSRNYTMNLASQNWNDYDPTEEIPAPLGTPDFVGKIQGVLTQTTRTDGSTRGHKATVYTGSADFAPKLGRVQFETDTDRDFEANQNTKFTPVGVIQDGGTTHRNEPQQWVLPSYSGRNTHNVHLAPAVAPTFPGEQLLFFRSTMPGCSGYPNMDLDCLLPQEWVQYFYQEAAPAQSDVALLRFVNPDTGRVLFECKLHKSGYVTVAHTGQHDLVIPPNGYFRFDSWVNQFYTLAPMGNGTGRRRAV
Briefly: indirect ELISA on coated GII.4 Sydney 2012 VLPs.

Experiment [4] has as its target T1, GII.4 Houston 2002 (ABY27560.1) VLPs. As to the kind of experiment: ELISA on GII.4 Houston 2002 VLPs against ELISA on GII.4 Sydney 2012 VLPs.
Experiment [5] deals with T3, GII.4 Sydney 2012 shell (S) domain (human norovirus GII.4 Sydney 2012, UniProt P54635 1-221 (Lordsdale virus entry), limits assumed).
T3 construct: Recombinant S domain particles (pVL1392, baculovirus, Sf9); the whole VP1 entry is named; also called GII.4 S domain
T3 chain: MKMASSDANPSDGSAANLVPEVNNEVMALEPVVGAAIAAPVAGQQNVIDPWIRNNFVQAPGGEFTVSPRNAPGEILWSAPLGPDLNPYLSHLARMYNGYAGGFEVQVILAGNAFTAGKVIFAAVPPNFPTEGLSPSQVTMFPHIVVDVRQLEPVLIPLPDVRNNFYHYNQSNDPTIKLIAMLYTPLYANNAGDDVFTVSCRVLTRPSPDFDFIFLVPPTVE
As to the kind of experiment: indirect ELISA on recombinant P and S domains.

In a further experiment the target is T4, GI.1 (M87661) VLPs (norovirus GI.1, UniProt Q83884 1-530; Q83885 1-212).
T4 sequence (VP1): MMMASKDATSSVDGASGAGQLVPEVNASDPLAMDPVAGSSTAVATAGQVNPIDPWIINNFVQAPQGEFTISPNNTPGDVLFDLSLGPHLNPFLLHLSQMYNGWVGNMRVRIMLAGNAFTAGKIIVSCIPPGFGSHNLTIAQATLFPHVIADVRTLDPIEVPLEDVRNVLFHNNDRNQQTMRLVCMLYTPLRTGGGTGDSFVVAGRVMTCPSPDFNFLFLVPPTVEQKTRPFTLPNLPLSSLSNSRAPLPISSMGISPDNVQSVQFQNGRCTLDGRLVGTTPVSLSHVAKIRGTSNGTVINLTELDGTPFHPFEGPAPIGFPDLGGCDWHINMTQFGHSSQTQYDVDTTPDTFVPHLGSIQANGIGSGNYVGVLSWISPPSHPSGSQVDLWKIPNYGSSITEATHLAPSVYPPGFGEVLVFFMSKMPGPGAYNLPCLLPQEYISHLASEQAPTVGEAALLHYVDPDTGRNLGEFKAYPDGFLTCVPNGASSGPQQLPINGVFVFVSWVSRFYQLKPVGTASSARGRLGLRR
T4 sequence (VP2): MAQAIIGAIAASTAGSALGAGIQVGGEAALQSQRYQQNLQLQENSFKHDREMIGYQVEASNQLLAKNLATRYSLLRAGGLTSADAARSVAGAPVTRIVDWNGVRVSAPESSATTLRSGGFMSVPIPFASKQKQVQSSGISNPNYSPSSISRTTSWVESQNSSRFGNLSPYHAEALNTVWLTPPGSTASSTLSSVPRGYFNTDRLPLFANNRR
As to the kind of experiment: indirect ELISA on VLPs.

B1: NORO-327A (antibody, V domains shown)
VH: QVQLEVSGGGLVKPGGSLRLSCAASGFTFTDYYMSWIRQAPGKGLEWVAYISGIMSSTKYADSVKGRFTISRDNGKNSVYLQMNSLTAEDTAVYYCARERVEPPSAVTDFWGQGTLVTVSS
VL: QSVLTQSPSVSGAPGQRVTISCTGTSSNIGAGYDVHWYQQFPGTAPKLLISHNTNRPSGVPDRFSGSKSGTSASLAITGLQAEDEADYYCQSFDSSLRGSRVFGGGTKLTVL
In experiment [1], B1 yielded an EC50 of 0.6 µg/mL.

B2: NORO-278 (antibody, V domains shown)
VH: QVQLVESGGGVVQPGRSLRLSCAASGFTFSSYGMHWVRQAPGKGLEWVAVISYDGSNKYYADSVKGRFTISRDNSKNTLYLQMNSLRAEDTAVYYCAKVTIIAAADLLDYWGQGTLVTVSS
VL: QSVLTQPPSVSGAPGQRVTISCTGSSSNIGAGYDVHWYQQLPGTAPKLLIYGNSNRPSGVPDRFSGSKSGTSASLAITGLQAEDEADYYCQSYDSSLSGPVVFGGGTKLTVL
Take B2: in experiment [2], the binding result is “binds”. In experiment [3], this molecule displayed an EC50 of 4 µg/mL.

B3: NORO-273A (antibody, V domains shown)
VH: QVQLVQSGAEVKKPGASVKISCKASGYDFTSFPMHWVRLGPGQRLEWMGWISAANGNTKYSQKFQDRFTITRDTSASIVHMELSSLRSEDTAVYYCARGGYSSGLYRYSNYYYGMTVWGQGTLVTVSS
VL: DIVMTQTPLSLSVTPGQPASISCKSSESLLHNDRKTYLFWYLQKPGQPPQLLIFQVSNRFSGVPDRFSGSGSGTDFTLRISRVEAEDVGIYYCLQTTQLPLTFGGGTKVEIK
Regarding B3, the binding result in experiment [2] is given as “binds”. The molecule further gave an EC50 in experiment [3] of 0.2 µg/mL.

B4: NORO-123 (antibody, V domains shown)
VH: QVQLVESGGGVVQPGRSLRLSCSTSGFTFSQYPMHWVRQAPGKGLEWVALISYDGMNKYYADSVRGRFTISRDNSENTQYLQMNSLRGDDTAVYYCARVTGDCTGNRCSYWAYYYYGLDVWGQGTLVTVSS
VL: QSALTQPPSASGSPGQSVTISCTGTSSDVGGYKYVSWYQQHPGKAPKLMIYEVTRRPSGVPDRFSGSKSGNTAFLTVSGLQAEDEADYYCGSYAGSTTSGYVFGTGTKVIVL
In the case of B4, the binding result in experiment [2] was “binds”. Besides, the concentration giving a half-maximal response (EC50) in experiment [3] came to 5.4 µg/mL.

B5: NORO-115 (antibody, V domains shown)
VH: QVQLVESGGGLVKPGGSLRLSCTASGITISGYYMSWIRQAPGKGLEWIVYINTSGRTIYYADSVKGRFSVSRDNAKESLYLQMDSLTVDDTGIYYCARDRLPASGSHWFHPWGQGTLVTVSS
VL: DIVMTQSPDSLAVSLGGRATINCKSSQSVLYTSDNKNYLAWYQQQPGQPPKLLISWASTRESGVPDRFSGSGSGTDFTLTISNLQAEDVAVYYCQQYYNSPLAFGGGTKVEIK
B5: the “fold higher binding EC50 compared to GII.4 Sydney 2012 VLPs” value in experiment [4] is more than 10 fold.

B6: NORO-232A.2 (antibody, V domains shown)
VH: QVQLKQWGAGLLKSSETLSLTCAFNGNSFGAFYWSWIRLSPGKGLEWIGEVNYLGGADYNPSLKSRVTMSADTSKRQFSLSLKSVTAADTGVYFCARGRPHDYSPGSYSRPRRYYGLDVWGQGTTVTVSS
VL: EIVLTQSPATLSLSPGDSATLSCRASQAVSTTYLAWYQQTRGQAPRLLIHGTYTRAIGIPDKFSGTGSGTDFTLTISGLAPEDFAVYYCQQYSSSPYTFGQGTKIEIT
On to B6, for which the EC50 in experiment [1] came out at 0.3 µg/mL.

B7: NORO-279A (antibody, V domains shown)
VH: QVQLVESGGGVVQPGRSLRLSCAASGFTFTKYGMHWVRQAPGKGLEWVAFIAYDGSVKYYGDSAKGRFAISRDNPKNTVYLQMNSLRAEDTAVYYCAKVEIHYYSNSLLGMDVWGQGTLVTVSS
VL: QSVLTQPPSASGTPGQRVTISCSGGNSNIGISYVYWYQHLPGTAPKLLISKNNLRPSGVPDRFSASKSGTSASLAISGLRSEDEAEYYCATLDINMTWVFGGGTKLTVL
Regarding B7, the binding result in experiment [2] was “binds”. In experiment [3], the 50% effective concentration (EC50) is 0.2 µg/mL.

B8: NORO-310A (antibody, V domains shown)
VH: EVQLVESGGGLVRPGESLRLSCVASGFSVSDNYMSWVRQAPGKGLQWVSVIYSGGTTFYTDSVKGRFTISRDKSKNTLFLQMNSLRAEDTAVYFCTRDPSQYYDSRGHYYQTFTPSFDSWGQGTLVTVSS
VL: DIQMTQSPSVMSASVGDRVTITCRASQDISDYLAWFQQKPGKVPKRLIYAASSLQNGVPSRFSGSGSGTEFTLTISSLQPEDFATYYCLQHDTYPLTFGGGTKVEIK
Turning to B8, the binding result in experiment [2] is reported as “binds”. Also, the EC50 in experiment [3] was 6.2 µg/mL.

B9: NORO-246A (antibody, V domains shown)
VH: EVHLVESGGGLVKPGGSLRLSCAASGFTFSRYGMHWVRQAPGKGLEWVSSIVIRSDYKYYADSVKGRFTISRDNAKNSLYLQMNSLRADDTAVYYCARDLVEPGITPVGCDYWGRGTLVTVSS
VL: SNELTQAPSVSVSPGQTARITCFGDALANQYSYWYQRKPGQAPVLVIYKDSERPSGIPQRFSASNSGTTVTLTITGVQAEDEADYFCQSADSTGIYKVFGGGTKLTVL
For the molecule B9, in experiment [1], it took 0.2 µg/mL to reach a half-maximal effect (EC50).

B10: NORO-156.3 (antibody, V domains shown)
VH: QVQLQQWGAGLLKPSETLSLTCAVYGGSFSGYYWSWIRQPPGKGLEWIGEINHSGSTNYNPSLKSRVTISVDTSKNQFSLKLSSVTAADTAVYYCARGLMDVWGQGTLVTVSS
VL: AIRMTQSPSSFSASTGDRVTITCRASQGISSYLAWYQQKPGKAPKLLIYAASTLQSGVPSRFSGSGSGTDFTLTISCLQSEDFATYYCQQYYSYPRTFGQGTKLEIK
With B10, the binding result in experiment [5] was “no binding (tested: 500 nM)”; with GI.1 (M87661) VLPs it was “binds”.

B11: NORO-202A.1 (antibody, V domains shown)
VH: QVQLVQSGAEVKKPGASVKVSCKASEYTFTGYYLQWVRQAPGHGLEWMGWINPSGGTKYSQKFQGRVTMTRDTSITTVYMELSRLRSDDTAVYYCARDLLRNWGDHDAFDVWGQGTMVTVSS
VL: QSVLTQPPSASETPGQGVTISCSGSSSNIGSNFVCWYQQVPGTAPKLLIYKNNQRPSGVPDRFSGSKSGTSASLAISGLRSEDEADYYCSAWDDSLSGPVFGGGTKLTVL
In the case of B11, the binding result is listed as “binds” in experiment [2] and “no binding (tested: 500 nM)” in the experiment with GI.1 (M87661) VLPs. The same molecule yielded an EC50 in experiment [3] of 0.4 µg/mL.

Values taken from US20210324050A1 (VANDERBILT UNIVERSITY, published 2021).
